Data as given in patent publication US20040110161.

Assays:
[1] = target: T1, MutS (Cy5-labeled) (Escherichia coli) (UniProt P23909); conditions: mung bean nuclease and SSB treated hydrogel chip
T1 sequence: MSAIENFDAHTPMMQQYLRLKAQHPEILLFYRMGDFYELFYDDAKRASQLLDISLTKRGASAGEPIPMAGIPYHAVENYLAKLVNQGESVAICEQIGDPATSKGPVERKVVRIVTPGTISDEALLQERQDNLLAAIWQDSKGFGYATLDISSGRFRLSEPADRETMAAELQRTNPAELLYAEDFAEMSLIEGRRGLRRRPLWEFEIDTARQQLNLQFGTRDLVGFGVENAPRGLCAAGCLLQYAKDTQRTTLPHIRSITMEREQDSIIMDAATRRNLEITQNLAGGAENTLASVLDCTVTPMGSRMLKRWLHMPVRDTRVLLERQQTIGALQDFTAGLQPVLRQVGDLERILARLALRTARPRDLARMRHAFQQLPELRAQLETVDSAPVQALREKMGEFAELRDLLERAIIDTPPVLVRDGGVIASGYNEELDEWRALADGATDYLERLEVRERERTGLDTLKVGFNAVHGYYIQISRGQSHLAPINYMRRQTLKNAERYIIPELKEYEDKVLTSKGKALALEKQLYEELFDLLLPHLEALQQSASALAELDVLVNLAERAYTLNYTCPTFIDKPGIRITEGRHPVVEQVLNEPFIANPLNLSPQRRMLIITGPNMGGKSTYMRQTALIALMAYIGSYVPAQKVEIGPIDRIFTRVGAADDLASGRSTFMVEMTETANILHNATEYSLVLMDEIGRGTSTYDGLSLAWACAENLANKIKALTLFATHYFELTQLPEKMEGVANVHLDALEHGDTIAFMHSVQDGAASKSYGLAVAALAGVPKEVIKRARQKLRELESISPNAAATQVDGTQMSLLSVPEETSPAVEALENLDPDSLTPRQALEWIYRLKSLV

[2] = target: T2, MBP-MutS fusion (Cy5-labeled) (Escherichia coli) (UniProt P23909); conditions: with nuclease and SSB
T2 sequence: T1 sequence

With “AGTGGTAATCTACTGGGACGGAACAGCTTTGAGGTGCGTGTTTGTGCCTGTCCTGGGAGAGACCGGCGCACAG (double strand) [cExon8/SW-480 PCR product]” the binding signal (fluorescence units) [1] was 461 and the binding signal (fluorescence units) [2] was 168.
